From PMC13334617

Biological target: wild-type AC fused to GFP (AC-GFP), encoded by plasmid pAC0-Gfp (Bordetella pertussis | not stated) (UniProt P0DKX7)
Assay: two-hybrid

calmodulin (CaM) with a 6-histidine tag at its N-terminus and a tetra-cysteine tag at its C-terminus, encoded by plasmid pTCam (from UniProt P0DP23 1-149) (natural protein)
cAMP: > 250 nmol/mg | ß gal (Rel. Units): 106 Rel. Units
